The values that follow come from patent US12006519B2, “Polymerase mutants and use with 3′-OH unblocked reversible terminators” (Agilent Technologies, Inc., priority 2021, dated 2024).

The test system of this test is Lightning Terminators. Nature of the test: Sequencing-by-synthesis with Lightning Terminators (87 cycles). Also on record: ARL (87 cycles) / Lead + Lag / Leading / Lagging: unit not given here. Type of test: biochemical. As for the experimental part:
This section generally describes how the present mutant polymerases were used for sequencing-by-synthesis, and how their performance in sequencing was measured. Sequencing was performed on a breadboard instrument, essentially as described in Hertzog D, et al., “A high-performance, low-cost approach to next-generation sequencing”, BioOptics World. 2011 Issue November/December 2011.
In this example, mutations were introduced into the DNA polymerase of SEQ ID NO: 12 (Therminator) in an attempt to improve its capability in sequencing with 3′-OH unblocked terminators. Such mutations to Thermococcus sp. 9° N DNA polymerase are disclosed in U.S. Pat. Nos. 9,273,352; 9,677,059; 9,765,309; U.S. Pat. App. Publication No. 20160032377. The following table summarizes sequencing metrics with Lightning Terminators.
As used in this example and those that follow, “Lead+Lag” refers to dephasing errors in Sequencing by Synthesis technology caused by either reading the next base signal (Lead) or reading the previous base signal (Lag) relative to current base signals. Such errors may arise because of imperfect incoporation of reversible terminators by the polymerase.
In this example, mutant polymerases were created by introducing certain mutations (D141A/E143A/A485L) which are present in Therminator. The three mutations were introduced at the equivalent positions in JDF3 (Thermococcus sp. JDF3) and Pfu (Pyrococcus furisosus) DNA polymerases. The new mutant polymerases were then evaluated for their performance in sequencing with Lightning Terminators, as described above.

The mark [1] stands for this setting: Therminator mutants, same unit concentrations (0.08 U/ul in cycle 1 and 0.008 U/ul in cycles 2-n).
[2] abbreviates: alternative polymerases (D141A/E143A), same protein concentrations (0.02 ug/uL in cycle 1 and 0.002 ug/uL in cycles 2-n).

Positions count from the first letter of the chain named. Numbers in names are those of the source.

B1: K476W: Therminator with mutation K476W (9° N DNA pol numbering) (protein, UniProt Q56366 1-775, looked up, variant D141A E143A A485L K476W)
DNA polymerase: MILDTDYITENGKPVIRVFKKENGEFKIEYDRTFEPYFYALLKDDSAIEDVKKVTAKRHGTVVKVKRAEKVQKKFLGRPIEVWKLYFNHPQDVPAIRDRIRAHPAVVDIYEYDIPFAKRYLIDKGLIPMEGDEELTMLAFAIATLYHEGEEFGTGPILMISYADGSEARVITWKKIDLPYVDVVSTEKEMIKRFLRVVREKDPDVLITYNGDNFDFAYLKKRCEELGIKFTLGRDGSEPKIQRMGDRFAVEVKGRIHFDLYPVIRRTINLPTYTLEAVYEAVFGKPKEKVYAEEIAQAWESGEGLERVARYSMEDAKVTYELGREFFPMEAQLSRLIGQSLWDVSRSSTGNLVEWFLLRKAYKRNELAPNKPDERELARRRGGYAGGYVKEPERGLWDNIVYLDFRSLYPSIIITHNVSPDTLNREGCKEYDVAPEVGHKFCKDFPGFIPSLLGDLLEERQKIKRKMKATVDPLEWKLLDYRQRLIKILANSFYGYYGYAKARWYCKECAESVTAWGREYIEMVIRELEEKFGFKVLYADTDGLHATIPGADAETVKKKAKEFLKYINPKLPGLLELEYEGFYVRGFFVTKKKYAVIDEEGKITTRGLEIVRRDWSEIAKETQARVLEAILKHGDVEEAVRIVKEVTEKLSKYEVPPEKLVIHEQITRDLRDYKATGPHVAVAKRLAARGVKIRPGTVISYIVLKGSGRIGDRAIPADEFDPTKHRYDAEYYIENQVLPAVERILKAFGYRKEDLRYQKTKQVGLGAWLKVKGKK
modifications: Therminator
For B1, under setting [1], the “% reads >85 bp” value is reported as 31.8%, the “ARL (87 cycles)” value is given as 70.2 and the “Lead + Lag” value is listed as 1.4.

B2: K477M: Therminator with mutation K477M (9° N DNA pol numbering) (protein, UniProt Q56366 1-775, looked up, variant D141A E143A A485L K477M)
DNA polymerase: B1 DNA polymerase with W476K, K477M
modifications: Therminator
As to B2, under setting [1], the “% reads >85 bp” value turned out to be 27.7%, the “ARL (87 cycles)” value is 68.8 and the “Lead + Lag” value was determined as 1.6.

B3: A639F: Therminator with mutation A639F (9° N DNA pol numbering) (protein, UniProt Q56366 1-775, looked up, variant D141A E143A A485L A639F)
DNA polymerase: B1 DNA polymerase with W476K, A639F
modifications: Therminator
For the molecule B3, under setting [1], the “% reads >85 bp” value is reported as 6.9%, the “ARL (87 cycles)” value turned out to be 58.5 and the “Lead + Lag” value was 2.3.

B4: L478S: Therminator with mutation L478S (9° N DNA pol numbering) (protein, UniProt Q56366 1-775, looked up, variant D141A E143A A485L L478S)
DNA polymerase: B1 DNA polymerase with W476K, L478S
modifications: Therminator
In the case of B4, under setting [1], the “% reads >85 bp” value came to 19.6%, the “ARL (87 cycles)” value was determined as 65.8 and the “Lead + Lag” value was found to be 1.6.

B5: I521L: Therminator with mutation I521L (9° N DNA pol numbering) (protein, UniProt Q56366 1-775, looked up, variant D141A E143A A485L I521L)
DNA polymerase: B1 DNA polymerase with W476K, I521L
modifications: Therminator
Regarding B5, under setting [1], the “% reads >85 bp” value was 2.8%, the “ARL (87 cycles)” value was determined as 53.9 and the “Lead + Lag” value amounted to 2.8.

B6: T590I: Therminator with mutation T590I (9° N DNA pol numbering) (protein, UniProt Q56366 1-775, looked up, variant D141A E143A A485L T590I)
DNA polymerase: B1 DNA polymerase with W476K, T590I
modifications: Therminator
Consider B6, for which, under setting [1], the “% reads >85 bp” value is reported as 32.2%, the “ARL (87 cycles)” value worked out at 68.1 and the “Lead + Lag” value was determined as 1.3.

B7: Therminator: DNA polymerase of SEQ ID NO:12, derivative of Thermococcus sp. 9° N-7 DNA polymerase (D141A/E143A/A485L), New England Biolabs (protein)
chain: B1 DNA polymerase with W476K
Consider B7, for which, for the setting “Example 3”, the “% reads >85 bp” value was determined as 49.6%, the FracQ30 is 0.58, the Lagging is listed as 0.61 and the Leading is on record as 0.70. Moreover, the “ARL (87 cycles)” value (Example 3, Therminator 110 runs, Pfu10 12 runs) came to 76.0. Under setting [1], the “% reads >85 bp” value turned out to be 35.4%, the “ARL (87 cycles)” value is given as 72.3 and the “Lead + Lag” value came out at 1.6. Besides, under setting [2], the “% reads >85” value turned out to be 49.6%, the “ARL (87 cycles)” value amounted to 76.0 and the “Lead + Lag” value amounted to 1.3.

B8: T514S: Therminator with mutation T514S (9° N DNA pol numbering) (protein, UniProt Q56366 1-775, looked up, variant D141A E143A A485L T514S)
DNA polymerase: B1 DNA polymerase with W476K, T514S
modifications: Therminator
For B8, under setting [1], the “% reads >85 bp” value is 38.3%, the “ARL (87 cycles)” value was 72.0 and the “Lead + Lag” value was determined as 1.1.

B9: T144G: Therminator with mutation T144G (9° N DNA pol numbering) (protein, UniProt Q56366 1-775, looked up, variant D141A E143A A485L T144G)
DNA polymerase: B1 DNA polymerase with T144G, W476K
modifications: Therminator
For the molecule B9, under setting [1], the “% reads >85 bp” value was found to be 31.8%, the “ARL (87 cycles)” value amounted to 70.5 and the “Lead + Lag” value was determined as 1.4.

B10: D718N: Therminator with mutation D718N (9° N DNA pol numbering) (protein, UniProt Q56366 1-775, looked up, variant D141A E143A A485L D718N)
DNA polymerase: B1 DNA polymerase with W476K, D718N
Turning to B10, under setting [1], the “% reads >85 bp” value is on record as 17.9%, the “ARL (87 cycles)” value was found to be 65.6 and the “Lead + Lag” value was found to be 1.8.

B11: R743A: Therminator with mutation R743A (9° N DNA pol numbering) (protein, UniProt Q56366 1-775, looked up, variant D141A E143A A485L R743A)
DNA polymerase: B1 DNA polymerase with W476K, R743A
For the molecule B11, under setting [1], the “% reads >85 bp” value was 8.6%, the “ARL (87 cycles)” value worked out at 55.0 and the “Lead + Lag” value was 2.4.

B12: G153D: Therminator with mutation G153D (9° N DNA pol numbering) (protein, UniProt Q56366 1-775, looked up, variant D141A E143A A485L G153D)
DNA polymerase: B1 DNA polymerase with G153D, W476K
modifications: Therminator
For B12, under setting [1], the “% reads >85 bp” value amounted to 21.5%, the “ARL (87 cycles)” value was 66.7 and the “Lead + Lag” value amounted to 1.8.
